From patent publication US20100211325A1

Assays:
[1] = target: Laminin 511/521 (LM511/521) (UniProt O15230); assay: ELISA, 0.05 nM Lu gpFc captured by anti-human Fc, 5 nM LM511/521, anti-laminin detection
[2] = target: Laminin 511/521 (LM511/521) (UniProt O15230); assay: SPR (Biacore X), Lu gpFc captured on protein A chip (40 RU), 100 µl injection of 10 nM LM511/521, total change in RU
[3] = target: Laminin 511/521 (LM511/521) (UniProt O15230); assay: ELISA in buffers of pH 4.0 to 11.0 and 1M NaCl, negative control Fc fusion protein captured, LM511/521 added

Muc18 Fc fusion protein (negative control), sequence (P43121 24-559): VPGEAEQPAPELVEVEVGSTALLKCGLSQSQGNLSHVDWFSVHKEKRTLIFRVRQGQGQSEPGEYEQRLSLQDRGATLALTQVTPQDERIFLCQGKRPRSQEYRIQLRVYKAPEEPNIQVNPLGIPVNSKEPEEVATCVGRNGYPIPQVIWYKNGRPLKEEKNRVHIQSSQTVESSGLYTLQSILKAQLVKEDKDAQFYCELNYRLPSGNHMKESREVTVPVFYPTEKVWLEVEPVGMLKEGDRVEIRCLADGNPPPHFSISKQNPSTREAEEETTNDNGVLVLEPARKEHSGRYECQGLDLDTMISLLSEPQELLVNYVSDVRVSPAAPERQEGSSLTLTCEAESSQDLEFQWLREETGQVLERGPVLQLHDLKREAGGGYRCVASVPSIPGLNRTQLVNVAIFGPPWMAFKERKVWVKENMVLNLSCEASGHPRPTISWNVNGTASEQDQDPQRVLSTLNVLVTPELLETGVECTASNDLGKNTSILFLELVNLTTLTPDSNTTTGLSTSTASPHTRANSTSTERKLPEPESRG

Row | Substance | ELISA % of native Lu gpFc [1] [%] | Biacore Δ RUs [2] [RU] | OD450 (background binding) [3] [OD450]
1 | Lu gpFc D198A/D199A (from UniProt P50895 32-547) (Fc fusion) | 49 | 59.7 | –
2 | Lu gpFc D310A (from UniProt P50895 32-547) (Fc fusion) | 26.4 | 38.5 | –
3 | Lu gpFc D312A (from UniProt P50895 32-547) (Fc fusion) | 20.7 | 4.4 | –
4 | Lu gpFc D315A (from UniProt P50895 32-547) (Fc fusion) | 93.2 | 116 | –
5 | Lu gpFc D316A (from UniProt P50895 32-547) (Fc fusion) | 75 | 79.8 | –
6 | Lu gpFc E234A (from UniProt P50895 32-547) (Fc fusion) | 90.7 | 85 | –
7 | Lu gpFc E269A (from UniProt P50895 32-547) (Fc fusion) | 63.2 | 73.8 | –
8 | Lu gpFc E280A (from UniProt P50895 32-547) (Fc fusion) | 73 | 99.1 | –
9 | Lu gpFc E281A (from UniProt P50895 32-547) (Fc fusion) | 97.3 | 100 | –
10 | Lu gpFc E309A (from UniProt P50895 32-547) (Fc fusion) | 40.4 | 44.9 | –
11 | Muc18 Fc fusion protein (negative control) (from UniProt P43121 24-559) | – | – | 0.18 to 0.64
